In publication PMC11685456, “Structural insights into GrpEL1-mediated nucleotide and substrate release of human mitochondrial Hsp70” (Nature Communications, 2024):

B1: human GrpEL1 wild type, without its mitochondrial targeting sequence (natural protein, UniProt Q9HAV7 28-217, looked up)
chain: CTATKQKNSGQNLEEDMGQSEQKADPPATEKTLLEEKVKLEEQLKETVEKYKRALADTENLRQRSQKLVEEAKLYGIQAFCKDLLEVADVLEKATQCVPKEEIKDDNPHLKNLYEGLVMTEVQIQKVFTKHGLLKLNPVGAKFDPYEHEALFHTPVEGKEPGTVALVSKVGYKLHGRTLRPALVGVVKEA
notes: GrpEL1, human mitochondrial nucleotide exchange factor; printed mass 25.5 kDa a protomer; Homodimer; no tag removal is described; also called GrpEL1WT; HsGrpEL1; source: E. coli LOBSTR, purified (Ni Sepharose, Strep-Tactin, Superdex 200)
B2: human GrpEL1 Y173A, without its mitochondrial targeting sequence (natural protein, UniProt Q9HAV7 28-217, looked up)
chain: CTATKQKNSGQNLEEDMGQSEQKADPPATEKTLLEEKVKLEEQLKETVEKYKRALADTENLRQRSQKLVEEAKLYGIQAFCKDLLEVADVLEKATQCVPKEEIKDDNPHLKNLYEGLVMTEVQIQKVFTKHGLLKLNPVGAKFDPAEHEALFHTPVEGKEPGTVALVSKVGYKLHGRTLRPALVGVVKEA
notes: GrpEL1, human; Two protomers (GrpEL1-A and GrpEL1-B) were modelled in the Y173A structures; also called HsGrpEL1_(Y173A); source: E. coli LOBSTR, purified as GrpEL1WT (Ni Sepharose, Strep-Tactin, Superdex 200)

Tests used:
[1] = target: the molecule itself; experiment: cryo-EM structure; high molecular weight SEC peak concentrated and vitrified on UltraAuFoil grids; Titan Krios G4, 300 keV; nucleotide-free complexes
[2] = target: T1, human mortalin R126W (mitochondrial Hsp70, HSPA9), without its mitochondrial targeting sequence (human, UniProt P38646 47-679, R126W); experiment: SEC-MALS; the mortalin_(R126W)-GrpEL1 complex; 152.5 kDa species; conditions: both partners purified
T1 construct: mortalin (mitochondrial Hsp70, HSPA9), human; printed mass 70.2 kDa; R126W is associated with EVEN-PLUS syndrome; residues 46-639 were modelled in the cryo-EM map; No tag removal is described; also called Hsmortalin_(R126W); mtHsp70; source: E. coli LOBSTR, co-expressed with HsHep1, purified (HisTrap, HiTrap Q, Superdex 200)

[3] = target: T1, human mortalin R126W (mitochondrial …); experiment: SEC; purified mortalin (20 uM), GrpEL1 (40 uM) and Pam16/Pam18 chimera (12 uM) incubated 1 h at room temperature, then Superdex 200 Increase 10/300 GL in 20 mM Tris pH 8, 150 mM KCl, 0.5 mM TCEP; fractions seen by SDS-PAGE; conditions: both partners purified

T1 sequence (P38646 47-679 R126W): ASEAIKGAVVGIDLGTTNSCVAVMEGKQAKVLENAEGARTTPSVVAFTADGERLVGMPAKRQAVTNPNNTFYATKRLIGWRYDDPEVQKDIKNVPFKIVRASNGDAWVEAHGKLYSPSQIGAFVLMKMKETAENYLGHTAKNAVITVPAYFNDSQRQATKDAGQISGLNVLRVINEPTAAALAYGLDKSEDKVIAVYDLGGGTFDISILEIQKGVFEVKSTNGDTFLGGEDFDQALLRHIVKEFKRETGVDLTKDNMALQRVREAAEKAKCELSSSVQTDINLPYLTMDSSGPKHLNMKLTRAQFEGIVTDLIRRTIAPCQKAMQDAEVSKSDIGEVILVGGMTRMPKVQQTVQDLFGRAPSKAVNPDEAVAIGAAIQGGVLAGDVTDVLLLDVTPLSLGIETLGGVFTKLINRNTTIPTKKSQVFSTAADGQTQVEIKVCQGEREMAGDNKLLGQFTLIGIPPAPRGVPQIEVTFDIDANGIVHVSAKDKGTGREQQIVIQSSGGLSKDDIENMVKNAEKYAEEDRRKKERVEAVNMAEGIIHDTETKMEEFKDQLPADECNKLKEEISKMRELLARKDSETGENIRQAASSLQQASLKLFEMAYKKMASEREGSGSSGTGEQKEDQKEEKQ

| Binder | stoichiometry N [1] | stoichiometry N [2] | binding result [1] | binding result [3] |
| --- | --- | --- | --- | --- |
| B1 | 2 | 2 GrpEL1 per mortalin | – | – |
| B2 | – | – | binds | binds |
